Where two headings read alike, the source gives them in different places.
Key:
[1] = mouse; expected from published studies and own work; cited from earlier work
[2] = Expected pharmacokinetics of soluble and/or released interferon α in the mouse; assay type: in vivo; conditions: for a 20 g mouse
Method: Animal Study. […] Mice used for this study were Balb/c transgenic for the human Interferon α2b gene (Braun et al. 1997, Palleroni et al. 1997). Three mice were used for each formulation. As a, control, one set of mice was injected with 50 μg of soluble human IFN-α001. […] Thus, for a 20 g mouse, the volume of distribution should be ˜8 ml. At 24 hours after administration, given a half-life of 1 hr, we would predict that the serum concentration remaining from a 50 μg dose would be ˜1 pg/ml. In practice, all of the sera of this group of mice were below the detection limit of the ELISA of 40 pg/ml. To test our formulation strategy, we produced 5 different interferon formulations. Human IFN-α2b, human IFN-α001, human IFN-α012, and murine IFN-α formulations were allowed to mature for 18 hr. A fifth formulation contained human IFN-α001 and matured for 3 hours prior to centrifugation. The human IFN-α formulations were produced at 0.4 mg/ml protein with 25 mM NaOAc pH 5.4, 6 mM Tris pH 8.0, 50 mM NaCl, 1.25% glycerol, with particle formation intitiated by addition of N-propanol to 16%. […] Serum was collected at 24 hours post injection, mice in all groups recieving a human interferon had immunoreactive interferon in their serum as determined by ELISA (PBL Multispecies ELISA # 41105). […] No interferon was detected at the 96 hours or 168 hours time points.

For interferon α, the volume of distribution [1] is listed as “about 0.4 ml/g” and the volume of distribution [2] is listed as ~8 mL.

Source: patent publication US20030017169A1, “Controlled release systems for polymers” (priority 2000, published 2003)
